The text below walks through data of US20040215400A1, “Computational design of a water-soluble analog of a protein, such as phospholamban and potassium channel KcsA” (priority 2003, published 2004).

As a reminder, the Tm is the temperature at the midpoint of the melting transition.

Data set [1] in a line: Thermal denaturation monitored by circular dichroism at 222 nm. The data set is classed as physicochemical. Also noted: ΔCp: unit not given here. The method, then:
All of the peptides were thermally unfolded, monitoring the loss of signal at 222 nm by CD spectroscopy with increasing temperature. Scans taken with 60 s signal averaging time and equilibration of 4 min at each temperature. Concentrations of peptide are 50 and 125 μM. Data were fit to a two-state model (theoretical curves are shown) with a monomer-pentamer equilibrium. […] Previously it has been shown that global fitting of such curves obtained at multiple protein concentrations can be used to confirm the aggregation state and obtain highly accurate measures of the free energy of association. Application of these procedures to WSPLB allows an excellent fit for a monomer-pentamer equilibrium, providing the thermodynamic parameters described in Table 1. The predicted midpoint concentration for the monomer-pentamer isotherm was 4.9 μM (30 kcal/mol) at 25° C., in good agreement with the value of 6 μM (28 kcal/mol) obtained from sedimentation equilibrium.
Conditions are identical to those in FIG. 2. Scans taken with 60 s signal averaging time and equilibration of 4 min at each temperature. Concentrations of both peptides are 50 μM. […] At these concentrations the ΔTm was approximately 8° C., and the ΔΔGunf was 4 kcal/mol. In Table 1, parameters are shown for full length WSPLB and phosphorylated pWSPLB, including ΔGunf, ΔHunf, and ΔCp, all at 1 M standard state, and a reference temperature of 350 K. Tm at 50 μM is also shown. ACP was a global fitting parameter for WSPLB, but held fixed for pWSPLB at the same value as WSPLB.
Thermal unfolding curves of WSPLB (residues 21-52) from 2 to 94° C. are illustrated in FIG. 7. Scans taken with 60 s signal averaging time and equilibration of 4 minutes at each temperature. Conditions and peptide concentrations were identical to those in FIG. 2. […] At higher temperatures a main transition is observed, which depends on the concentration of the peptide. […] In contrast, the main transition corresponds to dissociation of the oligomer to unfolded monomer. The increase in stability of WSPLB (residues 21-52) to WSPLB, also seen in sedimentation equilibrium, is apparent in the increase in Tm which is 76° C. for WSPLB (residues 21-52) versus 55° C. for WSPLB at 50 μM.
All CD spectra were collected on an AVIV 62DS spectropolarimeter, using a 1 mm pathlength quartz cuvette. CD spectra of WSPLB and pWSPLB were collected in 10 mM sodium phosphate pH 7.5, 50 mM NaCl, 1 mM tris (2-carboxyethyl)-phosphine hydrochloride (TCEP-HCl), and 1 mM EDTA while those for WSPLB (residues 21-52) in the same buffer substituted with 50 mM MOPS pH 7. Each wavelength scan from 200-260 nm is an average of four scans with 4 second averaging time per data point at 25° C. All thermal melting curves were collected in the same buffers as their corresponding wavelength scans, with 60 second averaging time and 4 minute equilibration time. The elipticity was measured at 222 nm as a function of increasing temperature (2-94° C.). WSPLB and pWSPLB melting curves were analyzed with Igor Pro® 3.16 (available from WaveMetrics, Inc., Oswego, Oreg. 97035), assuming a two-state unfolding pathway.
where [θ] is mean residue elipticity (deg cm^2 dmol^−1), T° is the midpoint of the transition, ΔH° is the van't Hoff enthalpy at the midpoint (kcal mol^−1), ΔS° is the standard state entropy (kcal mol^−1 K^−1), and ΔCP is the change in heat capacity over the temperature range of the experiment (kcal mol^−1 K^−1). In fitting, the floating parameters are the initial and final [θ] values, the slopes of the folded and unfolded baselines, ΔH, ΔCP, and Tm. The parameters were globally fit to three equilibria schemes, from monomer-tetramer to hexamer, using data collected at 49 and 126 μM. Only the monomer-pentamer scheme provided an adequate fit to the data. ΔCP was held constant for pWSPLB at the value obtained for WSPLB.

A short description of data set [2]: Sedimentation equilibrium analytical ultracentrifugation, monomer-nmer self-association. Format: physicochemical. The procedure:
Sedimentation equilibrium was used to rigorously determine the association state and thermodynamics of the observed oligomers. Because WSPLB eluted as a single homogenous species from size exclusion chromatography, and its CD spectra were concentration independent above 100 μM, we initially determined its association state at 113 μM centrifuged at 35,000 rpm. In these conditions, WSPLB sedimented as a single species with a molecular weight of approximately 31,600+/−200, or a pentamer (n=5.04). […] The monomer-pentamer dissociation constant was determined to be 6.34×10^−21 M^4 with a P(1/2)=6 μM, where P(1/2) is the midpoint of the monomer-nmer isotherm in total peptide concentration. […]
Measurements were made at 25° C. using a Beckman XL-1 analytical ultracentrifuge. […] Concentrations were monitored using absorption optics at a wavelength of 275 nm and equilibrium was assessed by the absence of significant change in radial concentration gradients in scans separated by a few hours. […] An uncertainty was estimated of about +10% in the calculated molecular weight of the protein, arising largely from uncertainty in the partial specific volume, which is calculated from a weight average of individual amino acids. […] Association constants were determined similarly, keeping the monomer molecular weight and oligomer number constant, and allowing the equilibrium constant to float. […]

In another data set the target is native channel (Streptomyces lividans, UniProt P0A334). The settings on record: read-out: reported Kdiss, Heginbotham et al. 1999; cited from earlier work.
The target of the next data set is WSK-3 (Streptomyces lividans, UniProt P0A334, L24D/W26E/G43A/Q58A/T61S/R64D/L81R/V93E/S102V/G104A, form not given).
Where [3] appears, read: global fit, monomer-pentamer, 1 M standard state, reference temperature 350 K.

Chain of WSK-3 (P0A334 whole entry L24D/W26E/G43A/Q58A/T61S/R64D/L81R/V93E/S102V/G104A, looked up): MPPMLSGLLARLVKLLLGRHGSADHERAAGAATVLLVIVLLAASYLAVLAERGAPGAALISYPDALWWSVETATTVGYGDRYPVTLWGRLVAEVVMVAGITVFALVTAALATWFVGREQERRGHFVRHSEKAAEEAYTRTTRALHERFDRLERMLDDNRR
Chain of native channel (P0A334 whole entry): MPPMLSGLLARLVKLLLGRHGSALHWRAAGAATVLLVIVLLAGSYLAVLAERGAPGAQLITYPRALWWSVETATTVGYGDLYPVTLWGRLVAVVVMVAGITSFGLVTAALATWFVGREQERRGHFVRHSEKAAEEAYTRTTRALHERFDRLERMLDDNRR
Description for WSK-3: Because we expected some salt dependence to the binding interaction, we also measured the extent of binding in the presence of the same concentrations of KCl. […] The approximate Kdiss for binding to TEA is determined from the relationship IC50=KTEA [fAgTx2-DNP]/KAgTx2-DNP where fAgTx2-DNP is defined as the free AgTx2-DNP concentration, and KTEA and KAgTx2-DNP are the dissociation constants for WSK-3 with TEA and AgTx2-DNP respectively.
To determine whether small molecule channel blockers also bind specifically to WSK-3, the ability of TEA to compete with AgTx2-DNP for binding to WSK-3 was measured.

As for “WSPLB: computationally designed water-soluble analog of phospholamban, full length, expressed in E. coli (MDKVQYLTRSAIRRAISTIEMPQQARQNLQNLYINRCLREICQELKEIRAMLK; WSPLB)”, the “increase of stability by phosphorylation” value in data set [1] is -0.9 kcal/mol/monomer. For the same molecule, in data set [1] (50 μM peptide, CD 222 nm, 2-94° C.), the midpoint of thermal melting (Tm) at 50 μM was determined as 55 °C. Further, the “predicted midpoint concentration for the monomer-pentamer isotherm” value in data set [1] (at 25° C., from global fit of thermal denaturation) is 4.9 µM. In addition, the “free energy of association (monomer-pentamer)” value was 30 kcal/mol in data set [1] (at 25° C., from thermal denaturation) and 28 kcal/mol in data set [2] (from sedimentation equilibrium). The ΔGunf in data set [1] (setting [3]) was 19.2 kcal/mol. In data set [1] (setting [3]), this molecule had a ΔHunf of 229 kcal/mol. In data set [1] (global fitting parameter for WSPLB, held fixed for pWSPLB at the WSPLB value), the ΔCp stood at 1.9. Further, the “P(1/2), midpoint of the monomer-nmer isotherm in total peptide concentration” value in data set [2] (monomer-pentamer, sedimentation equilibrium, 25° C.) came to 6 µM.

For `CC[N+](CC)(CC)CC.[Cl-]` [TEA, tetraethylammonium chloride], the Kd at native channel is 3.2 to 22 mM; at WSK-3 (read-out: Kdiss for TEA, from TEA concentration for 50% total toxin dissociation, assuming Kdiss≦2 μM for AgTx2-DNP), at most 80 mM. Also, on WSK-3 (AgTx2-DNP 10 μM, WSK-3 10 μM tetramer, relative to KCl control), the “competition with AgTx2-DNP for binding to WSK-3” value is reported as “induces dissociation of AgTx2-DNP from WSK-3 in a concentration-dependent manner”.
